Measured values from patent US20220096654A1, “PYRROLOBENZODIAZEPINE-ANTIBODY CONJUGATES AND USES THEREOF” (ADC THERAPEUTICS SA, priority 2020, published 2022).

T1: human CD45 (human, UniProt P08575 26-1306)
T1 sequence: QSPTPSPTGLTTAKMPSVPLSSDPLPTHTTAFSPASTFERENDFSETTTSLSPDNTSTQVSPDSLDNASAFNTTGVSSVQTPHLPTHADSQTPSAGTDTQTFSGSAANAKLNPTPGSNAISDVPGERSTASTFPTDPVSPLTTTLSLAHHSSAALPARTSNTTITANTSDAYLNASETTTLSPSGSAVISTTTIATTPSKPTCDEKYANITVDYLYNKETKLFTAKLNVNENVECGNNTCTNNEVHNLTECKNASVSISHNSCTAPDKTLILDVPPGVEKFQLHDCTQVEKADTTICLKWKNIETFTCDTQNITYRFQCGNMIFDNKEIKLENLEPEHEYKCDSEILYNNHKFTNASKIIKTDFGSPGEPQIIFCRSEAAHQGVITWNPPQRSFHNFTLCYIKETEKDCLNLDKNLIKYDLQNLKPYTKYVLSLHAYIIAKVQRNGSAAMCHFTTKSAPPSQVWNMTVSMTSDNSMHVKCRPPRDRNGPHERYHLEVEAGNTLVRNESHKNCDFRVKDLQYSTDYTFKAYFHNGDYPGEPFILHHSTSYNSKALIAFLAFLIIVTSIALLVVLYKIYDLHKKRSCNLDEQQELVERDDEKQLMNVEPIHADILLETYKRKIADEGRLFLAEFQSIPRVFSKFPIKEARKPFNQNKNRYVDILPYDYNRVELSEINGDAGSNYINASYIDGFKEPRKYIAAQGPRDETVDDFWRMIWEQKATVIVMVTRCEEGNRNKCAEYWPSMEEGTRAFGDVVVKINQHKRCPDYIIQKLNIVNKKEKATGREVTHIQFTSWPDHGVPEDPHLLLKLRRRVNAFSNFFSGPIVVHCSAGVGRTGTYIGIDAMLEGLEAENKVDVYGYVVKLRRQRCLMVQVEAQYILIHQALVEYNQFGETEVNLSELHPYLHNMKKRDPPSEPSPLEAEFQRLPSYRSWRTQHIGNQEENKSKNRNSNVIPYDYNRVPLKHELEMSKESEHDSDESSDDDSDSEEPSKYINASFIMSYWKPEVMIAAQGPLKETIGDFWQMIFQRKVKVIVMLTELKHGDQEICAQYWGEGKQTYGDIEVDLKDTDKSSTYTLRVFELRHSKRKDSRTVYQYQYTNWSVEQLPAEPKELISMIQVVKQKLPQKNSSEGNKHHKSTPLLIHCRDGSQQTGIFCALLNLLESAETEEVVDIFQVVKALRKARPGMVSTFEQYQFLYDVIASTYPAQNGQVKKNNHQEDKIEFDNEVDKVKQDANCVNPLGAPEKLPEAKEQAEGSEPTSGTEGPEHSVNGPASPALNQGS


Key:
human CD45 [1] = molecular target: T1, human CD45; assay: cell-based or functional assay
human CD45 [2] = molecular target: T1, human CD45; assay: cell-based or functional assay; remark: listed apart in the source
human CD45 [3] = molecular target: T1, human CD45; assay: cell-based or functional assay; remark: listed apart in the source
293T (CD45-) = assay: Cell viability assay 5 days (PrestoBlue), 293T; type: cell-based, human; settings: rat IgG2b ADC, n=3
Procedure: (§1) OCIM1, Jurkat and Nalm6 cells were seeded at a final concentration of 1.275×10^4/mL and for 5 days in presence of rat IgG2b Mab or ADC or medium (in triplicate) in wells of flat bottom 96-well plates. 293T cells were seeded at 9.3×10^3 cells per 100 uL per well in flat bottom 96-well plates and allowed to adhere the plate for up to 24 hours. 293T cells were subsequently cultured with rat IgG2b Mabs or ADC or medium (in triplicate wells) as described above. PrestoBlue® Cell viability Reagent (Thermo Fisher Scientific) was added to each and incubated for up to 1.5 hours. Fluorescence intensity from each well was detected using a FLUOstar OPTIMA microplate reader (BMG Labtech). Data was plotted using Prism 8.0 and sigmoid dose-response non-linear regression was used to determine EC50 values. Data points are mean±s.d. for representative experiments.

Nalm6 (CD45-) = assay: Cell viability assay 5 days (PrestoBlue), Nalm6; type: cell-based, human; settings: rat IgG2b ADC, n=3
Procedure: as §1

| Molecule | EC50, clonogenic assay, CD34+ PBSC (CD45+) (human CD45 [1]) [pM] | EC50, viability assay, Jurkat (CD45+), 72 h (human CD45 [1]) [pM] | EC50, viability assay, OCIM1 (CD45+), 72 h (human CD45 [1]) [pM] | Average EC50, viability assay, Jurkat (CD45+), 5 days (human CD45 [2]) [pM] | Average EC50, viability assay, OCIM1 (CD45+), 5 days (human CD45 [2]) [pM] | Average EC50, clonogenic assay, primary human CD34+ cells (human CD45 [3]) [pM] | EC50 (293T (CD45-)) [pM] | EC50 (Nalm6 (CD45-)) [pM] |
| --- | --- | --- | --- | --- | --- | --- | --- | --- |
| YTH54.12-hIgG1-AAA-PBD (antibody, DAR 2.10, V domains shown) VH: EVQLVESGGGLVQPGGSMKLSCAASGFTFSDYYMAWVRQAPKKGLEWVASMSFAGSSTYYGDSVKGRFTISRDNAKTTLYLQMNSLRSEDTATYYCARMYTTDYYLYWYFDFWGPGTMVTVSS VL: DVQMTQSPSYLAASPGESVSISCKASKSISNYLAWYQQKPGEANKILIYSGSTLQSGTPSRFSGSGSGTDFSLTIRNLEPEDFAVYYCQQYDEKPLTFGSGTKLEIK | 6.4 | 18 | 9.7 |  |  |  |  |  |
| YTH54.12-B4 (antibody, V domains shown, PBD drug-linker B4 (non-cleavable) conjugated; sites and DAR not stated) VH: EVQLVESGGGLVQPGGSMKLSCAASGFTFSDYYMAWVRQAPKKGLEWVASMSFAGSSTYYGDSVKGRFTISRDNAKTTLYLQMNSLRSEDTATYYCARMYTTDYYLYWYFDFWGPGTMVTVSS VL: DVQMTQSPSYLAASPGESVSISCKASKSISNYLAWYQQKPGEANKILIYSGSTLQSGTPSRFSGSGSGTDFSLTIRNLEPEDFAVYYCQQYDEKPLTFGSGTKLEIKR |  |  |  | 0.091 | 0.22 | 4.47 |  |  |
| YTH54.12-B7 (antibody, V domains shown, PBD drug-linker B7 conjugated; sites and DAR not stated) VH: EVQLVESGGGLVQPGGSMKLSCAASGFTFSDYYMAWVRQAPKKGLEWVASMSFAGSSTYYGDSVKGRFTISRDNAKTTLYLQMNSLRSEDTATYYCARMYTTDYYLYWYFDFWGPGTMVTVSS VL: DVQMTQSPSYLAASPGESVSISCKASKSISNYLAWYQQKPGEANKILIYSGSTLQSGTPSRFSGSGSGTDFSLTIRNLEPEDFAVYYCQQYDEKPLTFGSGTKLEIKR |  |  |  | 4.79 | 1.07 | 45.1 |  |  |
| YTH54.12-B2 (antibody, V domains shown, PBD drug-linker B2 conjugated; sites and DAR not stated) VH: EVQLVESGGGLVQPGGSMKLSCAASGFTFSDYYMAWVRQAPKKGLEWVASMSFAGSSTYYGDSVKGRFTISRDNAKTTLYLQMNSLRSEDTATYYCARMYTTDYYLYWYFDFWGPGTMVTVSS VL: DVQMTQSPSYLAASPGESVSISCKASKSISNYLAWYQQKPGEANKILIYSGSTLQSGTPSRFSGSGSGTDFSLTIRNLEPEDFAVYYCQQYDEKPLTFGSGTKLEIKR |  |  |  | 2.43 | 0.58 | 23.9 |  |  |
| YTH54.12-rat IgG2b-PBD (drug-linker B1) (antibody, V domains shown, PBD dimer drug-linker B1; light chains unconjugated or attached to a single molecule of B1; sites not given; PBD dimer drug-linker B1 conjugated after TCEP reduction; heavy chains attached to up to five molecules of B1; sites not given; DAR 1.90 (preparation) / 2.00) VH: EVQLVESGGGLVQPGGSMKLSCAASGFTFSDYYMAWVRQAPKKGLEWVASMSFAGSSTYYGDSVKGRFTISRDNAKTTLYLQMNSLRSEDTATYYCARMYTTDYYLYWYFDFWGPGTMVTVSS VL: DVQMTQSPSYLAASPGESVSISCKASKSISNYLAWYQQKPGEANKILIYSGSTLQSGTPSRFSGSGSGTDFSLTIRNLEPEDFAVYYCQQYDEKPLTFGSGTKLEIKR | 23 | 4.44 | 1.89 | 0.127 | 0.039 | 1.52 |  |  |
| YTH54.12-B2: rat IgG2b anti-CD45 antibody YTH54.12 conjugated to PBD drug-linker B2 (drawing 44) (conjugate) heavy: EVQLVESGGGLVQPGGSMKLSCAASGFTFSDYYMAWVRQAPKKGLEWVASMSFAGSSTYYGDSVKGRFTISRDNAKTTLYLQMNSLRSEDTATYYCARMYTTDYYLYWYFDFWGPGTMVTVSSAQTTAPSVYPLAPGCGDTTSSTVTLGCLVKGYFPEPVTVTWNSGALSSDVHTFPAVLQSGLYTLTSSVTSSTWPSQTVTCNVAHPASSTKVDKKVERRNGGIGHKCPTCPTCHKCPVPELLGGPSVFIFPPKPKDILLISQNAKVTCVVVDVSEEEPDVQFSWFVNNVEVHTAQTQPREEQYNSTFRVVSALPIQHQDWMSGKEFKCKVNNKALPSPIEKTISKPKGLVRKPQVYVMGPPTEQLTEQTVSLTCLTSGFLPNDIGVEWTSNGHIEKNYKNTEPVMDSDGSFFMYSKLNVERSRWDSRAPFVCSVVHEGLHNHHVEKSISRPPGK light: DVQMTQSPSYLAASPGESVSISCKASKSISNYLAWYQQKPGEANKILIYSGSTLQSGTPSRFSGSGSGTDFSLTIRNLEPEDFAVYYCQQYDEKPLTFGSGTKLEIKRADAAPTVSIFPPSMEQLTSGGATVVCFVNNFYPRDISVKWKIDGSEQRDGVLDSVTDQDSKDSTYSMSSTLSLTKVEYERHNLYTCEVVHKTSSSPVVKSFNRNEC |  |  |  |  |  |  | > 6000 | 27.9 |
| YTH24.5-rat IgG2b-PBD (drug-linker B1) (antibody, V domains shown, PBD dimer drug-linker B1; light chains unconjugated or attached to a single molecule of B1; sites not given; PBD dimer drug-linker B1 conjugated after TCEP reduction; heavy chains attached to up to five molecules of B1; sites not given; DAR 1.94 (preparation) / 2.00) VH: QVNLLQSGAALVKPGASVKLSCKASSYTFTDYYIHWVKQSHGKTLEWIGYINPKSGFTNYNEKFRRKATLTVDKSTNTAYMDISRLTSEDSATYYCTRRTGVIPMDAWGQGASVTVSS VL: DVVMTQTPVSLSVSLGGQVSISCRSSQSFVSSDGNTYLNWYLQKPGQSPQLLIYKVSNRLSGVPDRFSGSGSGTDFTLKISRVEHDDLGVYYCGQASKIPLTFGSGTKLEIKR | 16.5 | 5.36 | 1.38 | 0.213 | 0.03 | 2.64 |  |  |
| YTH24.5-B7 (antibody, V domains shown, PBD drug-linker B7 conjugated; sites and DAR not stated) VH: QVNLLQSGAALVKPGASVKLSCKASSYTFTDYYIHWVKQSHGKTLEWIGYINPKSGFTNYNEKFRRKATLTVDKSTNTAYMDISRLTSEDSATYYCTRRTGVIPMDAWGQGASVTVSS VL: DVVMTQTPVSLSVSLGGQVSISCRSSQSFVSSDGNTYLNWYLQKPGQSPQLLIYKVSNRLSGVPDRFSGSGSGTDFTLKISRVEHDDLGVYYCGQASKIPLTFGSGTKLEIKR |  |  |  | 8.4 | 2.18 | 35.5 |  |  |
| YTH24.5-B4 (antibody, V domains shown, PBD drug-linker B4 (non-cleavable) conjugated; sites and DAR not stated) VH: QVNLLQSGAALVKPGASVKLSCKASSYTFTDYYIHWVKQSHGKTLEWIGYINPKSGFTNYNEKFRRKATLTVDKSTNTAYMDISRLTSEDSATYYCTRRTGVIPMDAWGQGASVTVSS VL: DVVMTQTPVSLSVSLGGQVSISCRSSQSFVSSDGNTYLNWYLQKPGQSPQLLIYKVSNRLSGVPDRFSGSGSGTDFTLKISRVEHDDLGVYYCGQASKIPLTFGSGTKLEIKR |  |  |  | 0.052 | 0.096 | 4.92 |  |  |
| YTH24.5-B2 (antibody, V domains shown, PBD drug-linker B2 conjugated; sites and DAR not stated) VH: QVNLLQSGAALVKPGASVKLSCKASSYTFTDYYIHWVKQSHGKTLEWIGYINPKSGFTNYNEKFRRKATLTVDKSTNTAYMDISRLTSEDSATYYCTRRTGVIPMDAWGQGASVTVSS VL: DVVMTQTPVSLSVSLGGQVSISCRSSQSFVSSDGNTYLNWYLQKPGQSPQLLIYKVSNRLSGVPDRFSGSGSGTDFTLKISRVEHDDLGVYYCGQASKIPLTFGSGTKLEIKR |  |  |  | 2.12 | 0.025 | 32.7 |  |  |
| YTH24.5-hIgG1-AAA-PBD (antibody, DAR 2.08, V domains shown) VH: QVNLLQSGAALVKPGASVKLSCKASSYTFTDYYIHWVKQSHGKTLEWIGYINPKSGFTNYNEKFRRKATLTVDKSTNTAYMDISRLTSEDSATYYCTRRTGVIPMDAWGQGASVTVSS VL: DVVMTQTPVSLSVSLGGQVSISCRSSQSFVSSDGNTYLNWYLQKPGQSPQLLIYKVSNRLSGVPDRFSGSGSGTDFTLKISRVEHDDLGVYYCGQASKIPLTFGSGTKLEIK | 7.9 | 23 | 6.8 |  |  |  |  |  |
